Reference: article PMC4323659 (Scientific Reports, 2015)

Key:
VmoLac [1] = target: T1, VmoLac (Vulcanisaeta moutnovskia, UniProt F0QXN6); format: binding
T1 construct: gene VMUT_2255; full length, 315 residues; Strep tag removed by TEV protease; E. coli BL21(DE3)-pGro7/GroEL; homodimer; bi-cobalt enzyme

[2] = test system: CCCCCC(=O)CC(=O)N[C@H]1CCOC1=O; experiment: purified protein; conditions: pH 8.3; 25.0 °C
CCCCC1CCCC(=O)O1 = experiment: purified protein; conditions: pH 8.3; 25.0 °C
[3] = test system: CCCCCCCC(=O)CC(=O)N[C@H]1CCOC1=O; experiment: purified protein; conditions: pH 8.3; 25.0 °C
CCC1CCC(=O)O1 = experiment: purified protein; conditions: pH 8.3; 25.0 °C
CCCCCCCC(=O)NC1CCOC1=O = experiment: purified protein; conditions: pH 8.3; 25.0 °C
CCCCCCC1CCCC(=O)O1 = experiment: purified protein; conditions: pH 8.3; 25.0 °C
CCCCCCCCC1CCC(=O)O1 = experiment: purified protein; conditions: pH 8.3; 25.0 °C
CCCCCC1CCC(=O)O1 = experiment: purified protein; conditions: pH 8.3; 25.0 °C
CCCC1CCC(=O)O1 = experiment: purified protein; conditions: pH 8.3; 25.0 °C
CCCCCCCC1CCCC(=O)O1 = experiment: purified protein; conditions: pH 8.3; 25.0 °C
VmoLac [4] = target: T1, VmoLac; format: biochemical

In the case of `CCCCCCCC(=O)CC(=O)N[C@H]1CCOC1=O` [XVI, 3-oxo C10 AHL], the “X-ray crystal structure, soaked crystal, 2.0 Å” value (VmoLac [1]) is reported as “Crystals of VmoLac were soaked with 3-oxo-C10 AHL, and the lactone sits”.

Work on “VmoLac (Vulcanisaeta moutnovskia 768-28)” yielded a Km [2] of 186 ± 37 µM, a kcat/Km [2] of 1880 ± 380 M⁻¹ s⁻¹ and a Km (CCCCC1CCCC(=O)O1) of 1220 ± 59 µM. It also gave a kcat/Km (CCCCC1CCCC(=O)O1) of 72900 ± 3700 M⁻¹ s⁻¹, a Km [3] of 231 ± 55 µM and a kcat/Km [3] of 2050 ± 500 M⁻¹ s⁻¹. The Km (CCC1CCC(=O)O1) was 3709 ± 497 µM, the kcat/Km (CCC1CCC(=O)O1) was 30300 ± 4600 M⁻¹ s⁻¹ and the Km (CCCCCCCC(=O)NC1CCOC1=O) was 262 ± 54 µM. The kcat/Km (CCCCCCCC(=O)NC1CCOC1=O) was 2230 ± 480 M⁻¹ s⁻¹, the Km (CCCCCCC1CCCC(=O)O1) was 105 ± 24 µM and the kcat/Km (CCCCCCC1CCCC(=O)O1) was 580000 ± 132000 M⁻¹ s⁻¹. It also gave a K0.5 (CCCCCCCCC1CCC(=O)O1) of 2.1 ± 0.6 µM, a kcat/Km (CCCCCCCCC1CCC(=O)O1) of 77700 ± 24000 M⁻¹ s⁻¹ and a Km (CCCCCC1CCC(=O)O1) of 47 ± 11 µM. For the same compound, the kcat/Km (CCCCCC1CCC(=O)O1) was 948000 ± 218000 M⁻¹ s⁻¹, the Km (CCCC1CCC(=O)O1) was 872 ± 220 µM and the kcat/Km (CCCC1CCC(=O)O1) was 31200 ± 8600 M⁻¹ s⁻¹. It also gave a K0.5 (CCCCCCCC1CCCC(=O)O1) of 839 ± 13 µM.

In the case of `CC(=O)Oc1ccc([N+](=O)[O-])cc1` [VIII, pNP-Acetate], the “KM (μM)” value (VmoLac [4]) is reported as 4 471 ± 593 μM.

`CCOP(=O)(OCC)Oc1ccc([N+](=O)[O-])cc1` [I, ethyl-paraoxon] was tested, and the Km (VmoLac [4]; HEPES 50 mM pH 8, NaCl 150 mM, CoCl2 0.2 mM, 25°C) was 581 ± 61 µM.
